Drawing on the array DNA melting data of Ke et al., this text covers Tm for 26 substances.

This data set is described as follows: melting temperature; melt of duplexes. The conditions noted are these: sodium 0.0675 M; strand 1 µM.
As to “CGACGTGCTGTATGTGCTG+CAGCACATCCCGCACGTCG ((((((((.(.((((((((+)))))))).).))))))))”, the Tm was determined as 49.4 °C.
As to “CGACGTGCGATATGTGCTG+CAGCACATACTGCACGTCG ((((((((..(((((((((+)))))))))..))))))))”, the Tm came out at 52.6 °C.
In the case of “CGACGTGCACTATGTGCTG+CAGCACATCCGGCACGTCG ((((((((...((((((((+))))))))...))))))))” it was 43.2 °C; in that of “CGACGTGCGAGATGTGCTG+CAGCACATGCCGCACGTCG (((((((((..((((((((+))))))))..)))))))))”, 55.4 °C; in that of “CGACGTGCTCCATGTGCTG+CAGCACATACGGCACGTCG ((((((((...((((((((+))))))))...))))))))”, 47 °C.
As to “CGACGTGCTCTATGTGCTG+CAGCACATGTAGCACGTCG (((((((((..((((((((+))))))))..)))))))))”, the Tm stood at 52.3 °C.
Consider “CGACGTGCTGGATGTGCTG+CAGCACATAGTGCACGTCG ((((((((...((((((((+))))))))...))))))))”, for which the Tm was 45 °C.
For “CGACGTGCCTCATGTGCTG+CAGCACATTATGCACGTCG ((((((((.(.((((((((+)))))))).).))))))))”, the Tm worked out at 47.7 °C.
As to “CGACGTGCAGGATGTGCTG+CAGCACATGTCGCACGTCG ((((((((...((((((((+))))))))...))))))))”, the Tm is 51.4 °C.
The same measure for “CGACGTGCAAAATGTGCTG+CAGCACATTACGCACGTCG ((((((((..(((((((((+)))))))))..))))))))”: 51.5 °C.
On to “CGACGTGCCGTATGTGCTG+CAGCACATGCCGCACGTCG ((((((((.(.((((((((+)))))))).).))))))))”, for which the Tm amounted to 51.6 °C.
For the substance “CGACGTGCACCATGTGCTG+CAGCACATCTGGCACGTCG ((((((((...((((((((+))))))))...))))))))”, the midpoint of thermal melting (Tm) turned out to be 43.7 °C.
In the case of “CGACGTGCAGGATGTGCTG+CAGCACATTAAGCACGTCG ((((((((...((((((((+))))))))...))))))))”, the midpoint of thermal melting (Tm) was 50.7 °C.
Regarding “CGACGTGCTCCATGTGCTG+CAGCACATATCGCACGTCG ((((((((...((((((((+))))))))...))))))))”, the midpoint of thermal melting (Tm) was found to be 46.4 °C.
Regarding “CGACGTGCATCATGTGCTG+CAGCACATTGAGCACGTCG ((((((((...((((((((+))))))))...))))))))”, the Tm was determined as 50.2 °C.
In the case of “CGACGTGCCTCATGTGCTG+CAGCACATTGAGCACGTCG ((((((((...((((((((+))))))))...))))))))”, the Tm turned out to be 51.4 °C.
Regarding “CGACGTGCTCGATGTGCTG+CAGCACATCTCGCACGTCG ((((((((..(((((((((+)))))))))..))))))))”, the midpoint of thermal melting (Tm) turned out to be 53.3 °C.
With “CGACGTGCTGTATGTGCTG+CAGCACATCGGGCACGTCG ((((((((...((((((((+))))))))...))))))))”, the melting temperature (Tm) was determined as 50.6 °C.
As to “CGACGTGCGAGATGTGCTG+CAGCACATGCGGCACGTCG ((((((((...((((((((+))))))))...))))))))”, the Tm was found to be 50.4 °C.
The same measure for “CGACGTGCGTGATGTGCTG+CAGCACATACTGCACGTCG ((((((((...((((((((+))))))))...))))))))”: 51.1 °C; for “CGACGTGCCATATGTGCTG+CAGCACATGTCGCACGTCG ((((((((.(.((((((((+)))))))).).))))))))”: 50.5 °C.
The same measure for “CGACGTGCGTAATGTGCTG+CAGCACATGTCGCACGTCG (((((((((..((((((((+))))))))..)))))))))”: 56 °C; for “CGACGTGCTTGATGTGCTG+CAGCACATCATGCACGTCG ((((((((.((((((((((+)))))))))).))))))))”: 59.5 °C.
The same measure for “CGACGTGCCTGATGTGCTG+CAGCACATACTGCACGTCG ((((((((...((((((((+))))))))...))))))))”: 48.4 °C; for “CGACGTGCTATATGTGCTG+CAGCACATGGGGCACGTCG ((((((((...((((((((+))))))))...))))))))”: 51 °C.
On to “CGACGTGCTGGATGTGCTG+CAGCACATTATGCACGTCG ((((((((...((((((((+))))))))...))))))))”, for which the Tm was 52 °C.
